The source of these data is PMC9034974, “Physicochemical characterization of the recombinant lectin scytovirin and microbicidal activity of the SD1 domain produced in rice against HIV-1” (Plant Cell Reports, 2022).

Read-outs that look alike come from different tables or passages of the source.

What is called Kd is the concentration at which binding is half-saturated.

In assay [1] the target is recombinant gp120 used for isothermal titration calorimetry (strain not stated) (HIV-1 (strain not stated)) (UniProt P04578). Description: ITC; 102 µM SVN titrated into the cell with 1.6 µM gp120; 30 °C; 10 mM sodium phosphate pH 7.4, 3 mM sodium azide; fitted to one set of identical sites. In general terms: ITC needs no label: the signal is the heat of the interaction.
The target is the same in assay [2]. The description is as above. This is another data set of the same source.

scytovirin (SVN), full-size, E. coli-produced, sequence (P86041 whole entry): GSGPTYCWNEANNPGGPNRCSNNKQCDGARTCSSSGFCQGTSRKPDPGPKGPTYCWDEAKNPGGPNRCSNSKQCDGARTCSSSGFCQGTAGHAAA

Turning to “scytovirin (SVN), full-size, E. coli-produced (from UniProt P86041 1-95) (natural protein)”, in assay [1], the Kd is 1.5 µM. Further, in assay [2], the Kd is 1.63 µM, the dH was -6.45 kcal/mol and the stoichiometry N (SVN per gp120) came to 5.
